Experimental data: patent US20240238445A1, “INHIBITORS AND USES THEREOF” (NEURACLE SCIENCE CO., LTD., priority 2021, published 2024)

B1: FB-20[A12] (peptide)
peptide: GYTYFTTVTVETAETQPGEE
B2: FB-20[A13] (peptide)
peptide: GYTYFTTVTVETLATQPGEE
B3: LRRC4B (36-713): FLAG-tagged LRRC4B deletion construct, amino acids 36-713 of SEQ ID NO: 2 (protein)
chain: AGGGGVAVTSAAGGGSPPATSCPVACSCSNQASRVICTRRDLAEVPASIPVNTRYLNLQENGIQVIRTDTFKHLRHLEILQLSKNLVRKIEVGAFNGLPSLNTLELFDNRLTTVPTQAFEYLSKLRELWLRNNPIESIPSYAFNRVPSLRRLDLGELKRLEYISEAAFEGLVNLRYLNLGMCNLKDIPNLTALVRLEELELSGNRLDLIRPGSFQGLTSLRKLWLMHAQVATIERNAFDDLKSLEELNLSHNNLMSLPHDLFTPLHRLERVHLNHNPWHCNCDVLWLSWWLKETVPSNTTCCARCHAPAGLKGRYIGELDQSHFTCYAPVIVEPPTDLNVTEGMAAELKCRTGTSMTSVNWLTPNGTLMTHGSYRVRISVLHDGTLNFTNVTVQDTGQYTCMVTNSAGNTTASATLNVSAVDPVAAGGTGSGGGGPGGSGGVGGGSGGYTYFTTVTVETLETQPGEEALQPRGTEKEPPGPTTDGVWGGGRPGDAAGPASSSTTAPAPRSSRPTEKAFTVPITDVTENALKDLDDVMKTTKIIIGCFVAITFMAAVMLVAFYKLRKQHQLHKHHGPTRTVEIINVEDELPAASAVSVAAAAAVASGGGVGGDSHLALPALERDHLNHHHYVAAAFKAHYSSNPSGGGCGGKGPPGLNSIHEPLLFKSGSKENVQETQI
modifications: FLAG tag
B4: LRRC4B (157-713): FLAG-tagged LRRC4B deletion construct, amino acids 157-713 of SEQ ID NO: 2 (protein)
chain: LSKLRELWLRNNPIESIPSYAFNRVPSLRRLDLGELKRLEYISEAAFEGLVNLRYLNLGMCNLKDIPNLTALVRLEELELSGNRLDLIRPGSFQGLTSLRKLWLMHAQVATIERNAFDDLKSLEELNLSHNNLMSLPHDLFTPLHRLERVHLNHNPWHCNCDVLWLSWWLKETVPSNTTCCARCHAPAGLKGRYIGELDQSHFTCYAPVIVEPPTDLNVTEGMAAELKCRTGTSMTSVNWLTPNGTLMTHGSYRVRISVLHDGTLNFTNVTVQDTGQYTCMVTNSAGNTTASATLNVSAVDPVAAGGTGSGGGGPGGSGGVGGGSGGYTYFTTVTVETLETQPGEEALQPRGTEKEPPGPTTDGVWGGGRPGDAAGPASSSTTAPAPRSSRPTEKAFTVPITDVTENALKDLDDVMKTTKIIIGCFVAITFMAAVMLVAFYKLRKQHQLHKHHGPTRTVEIINVEDELPAASAVSVAAAAAVASGGGVGGDSHLALPALERDHLNHHHYVAAAFKAHYSSNPSGGGCGGKGPPGLNSIHEPLLFKSGSKENVQETQI
modifications: FLAG tag
B5: LRRC4B (230-713): FLAG-tagged LRRC4B deletion construct, amino acids 230-713 of SEQ ID NO: 2 (protein)
chain: RLEELELSGNRLDLIRPGSFQGLTSLRKLWLMHAQVATIERNAFDDLKSLEELNLSHNNLMSLPHDLFTPLHRLERVHLNHNPWHCNCDVLWLSWWLKETVPSNTTCCARCHAPAGLKGRYIGELDQSHFTCYAPVIVEPPTDLNVTEGMAAELKCRTGTSMTSVNWLTPNGTLMTHGSYRVRISVLHDGTLNFTNVTVQDTGQYTCMVTNSAGNTTASATLNVSAVDPVAAGGTGSGGGGPGGSGGVGGGSGGYTYFTTVTVETLETQPGEEALQPRGTEKEPPGPTTDGVWGGGRPGDAAGPASSSTTAPAPRSSRPTEKAFTVPITDVTENALKDLDDVMKTTKIIIGCFVAITFMAAVMLVAFYKLRKQHQLHKHHGPTRTVEIINVEDELPAASAVSVAAAAAVASGGGVGGDSHLALPALERDHLNHHHYVAAAFKAHYSSNPSGGGCGGKGPPGLNSIHEPLLFKSGSKENVQETQI
modifications: FLAG tag
B6: LRRC4B (364-713): FLAG-tagged LRRC4B deletion construct, amino acids 364-713 of SEQ ID NO: 2 (protein)
chain: PVIVEPPTDLNVTEGMAAELKCRTGTSMTSVNWLTPNGTLMTHGSYRVRISVLHDGTLNFTNVTVQDTGQYTCMVTNSAGNTTASATLNVSAVDPVAAGGTGSGGGGPGGSGGVGGGSGGYTYFTTVTVETLETQPGEEALQPRGTEKEPPGPTTDGVWGGGRPGDAAGPASSSTTAPAPRSSRPTEKAFTVPITDVTENALKDLDDVMKTTKIIIGCFVAITFMAAVMLVAFYKLRKQHQLHKHHGPTRTVEIINVEDELPAASAVSVAAAAAVASGGGVGGDSHLALPALERDHLNHHHYVAAAFKAHYSSNPSGGGCGGKGPPGLNSIHEPLLFKSGSKENVQETQI
modifications: FLAG tag
B7: LRRC4B (453-713): FLAG-tagged LRRC4B deletion construct, amino acids 453-713 of SEQ ID NO: 2 (protein)
chain: VSAVDPVAAGGTGSGGGGPGGSGGVGGGSGGYTYFTTVTVETLETQPGEEALQPRGTEKEPPGPTTDGVWGGGRPGDAAGPASSSTTAPAPRSSRPTEKAFTVPITDVTENALKDLDDVMKTTKIIIGCFVAITFMAAVMLVAFYKLRKQHQLHKHHGPTRTVEIINVEDELPAASAVSVAAAAAVASGGGVGGDSHLALPALERDHLNHHHYVAAAFKAHYSSNPSGGGCGGKGPPGLNSIHEPLLFKSGSKENVQETQI
modifications: FLAG tag
B8: LRRC4B (364-576): FLAG-tagged LRRC4B deletion construct, amino acids 364-576 of SEQ ID NO: 2 (protein)
chain: PVIVEPPTDLNVTEGMAAELKCRTGTSMTSVNWLTPNGTLMTHGSYRVRISVLHDGTLNFTNVTVQDTGQYTCMVTNSAGNTTASATLNVSAVDPVAAGGTGSGGGGPGGSGGVGGGSGGYTYFTTVTVETLETQPGEEALQPRGTEKEPPGPTTDGVWGGGRPGDAAGPASSSTTAPAPRSSRPTEKAFTVPITDVTENALKDLDDVMKTTK
modifications: FLAG tag
B9: LRRC4C peptide fragment: LRRC4C protein fragment, amino acids 354-527 of SEQ ID NO: 3 (protein)
chain: VIVEPPADLNVTEGMAAELKCRASTSLTSVSWITPNGTVMTHGAYKVRIAVLSDGTLNFTNVTVQDTGMYTCMVSNSVGNTTASATLNVTAATTTPFSYFSTVTVETMEPSQDEARTTDNNVGPTPVVDWETTNVTTSLTPQSTRSTEKTFTIPVTDINSGIPGIDEVMKTTK
B10: LRRC4 peptide fragment: LRRC4 protein fragment, amino acids 353-527 of SEQ ID NO: 1 (protein)
chain: PFIMDAPRDLNISEGRMAELKCRTPPMSSVKWLLPNGTVLSHASRHPRISVLNDGTLNFSHVLLSDTGVYTCMVTNVAGNSNASAYLNVSTAELNTSNYSFFTTVTVETTEISPEDTTRKYKPVPTTSTGYQPAYTTSTTVLIQTTRVPKQVAVPATDTTDKMQTSLDEVMKTTK

What was measured:
FAM19A5 protein [1] = biological target: T1, FAM19A5 protein (Homo sapiens, UniProt Q7Z5A7); assay: competitive inhibition ELISA; competitor: coated LRRC4B(36-576)-hFc
FAM19A5 protein [2] = biological target: T1, FAM19A5 protein; assay: competitive inhibition ELISA; competitor: coated LRRC4B(453-576)-hFc
FAM19A5 protein [3] = biological target: T1, FAM19A5 protein; assay: Co-immunoprecipitation of FLAG-tagged LRRC4 family deletion constructs/fragments with recombinant FAM19A5 in HEK293 cells; type: binding; conditions: HEK293 cells expressing FLAG-tagged construct, recombinant FAM19A5 1 μM 30 minutes; IP anti-FLAG, blot anti-FAM19A5 (3-2)
Method: To understand the interaction between FAM19A5 and members of the LRRC4 protein family, HEK293 cells were modified to express a FLAG-tagged member of the LRRC4 protein family, i.e., LRRC4C protein, LRRC4 protein, or LRRC4B protein. Then, the HEK293 cells or primary cortical neurons were treated with recombinant FAM19A5 protein (1 μM) for 30 minutes, and the binding between FAM19A5 protein and the different members of the LRRC4 protein family was assessed using both co-immunoprecipitation and immunofluorescence assays.
For the co-immunoprecipitation assay, cell lysates from the different FAM19A5-treated HEK293 cells were collected and immunoprecipitated with an anti-FLAG antibody, anti-FAM19A5 (1-65) antibody, or a human IgG antibody (control). Immunoprecipitated proteins were immunoblotted with anti-FLAG and anti-FAM19A5 (3-2) antibodies. For the immunofluorescence assay, the HEK293 cells treated with the recombinant FAM19A5 protein were immunostained with anti-FAM19A5 (3-2) (to detect FAM19A5 protein expression) and anti-FLAG antibodies (to detect member of the LRRC4 protein family). The primary cortical neurons treated with the recombinant FAM19A5 protein were immunostained with anti-FAM19A5 (3-2) and anti-LRRC4B antibodies. The nuclei were stained with Hoechst33342 (blue).
To determine the specific motif or domain of the LRRC4B protein that is responsible for the binding to a FAM19A5 protein, various FLAG-tagged LRRC4B deletion constructs were generated (see Table 6 below). HEK293 cells were transfected with the different deletion constructs and then treated with recombinant FAM19A5 protein as described in Example 1. Then, the cell lysates from the different HEK293 cells were immunoprecipitated with the anti-FLAG antibody. The immunoprecipitated proteins were immunoblotted with anti-FLAG and anti-FAM19A5 (3-2) antibodies.
As described in Example 2, all members of the LRRC4 protein family were capable of binding to FAM19A5 protein to varying degrees. Therefore, to compare the bindings domains, the amino acid sequences of the LRRC4B, LRRC4, and LRRC4C proteins were aligned. […] Therefore, to assess whether the corresponding positions of LRRC4 and LRRC4C were important in the binding of these proteins to FAM19A5 protein, cDNAs encoding either (i) LRRC4C protein fragment (amino acids 354-527 of SEQ ID NO: 3; SEQ ID NO: 66) or (ii) LRRC4 protein fragment (amino acids 353-527 of SEQ ID NO: 1; SEQ ID NO: 67) were constructed (see Table 7). HEK293 cells were transfected to express either of the protein fragments and then treated with recombinant FAM19A5 protein as described in Example 1. Then, the cell lysates from the different HEK293 cells were immunoprecipitated with the anti-FLAG antibody. The immunoprecipitated proteins were immunoblotted with anti-FLAG and anti-FAM19A5 (3-2) antibodies.
Target sequence in this assay (Q7Z5A7 44-132): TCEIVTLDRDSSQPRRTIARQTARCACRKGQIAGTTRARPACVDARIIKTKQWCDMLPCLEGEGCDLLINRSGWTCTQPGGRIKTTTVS

Molecule | Inhibition rate (%) (FAM19A5 protein [1]) | Inhibition rate (%) (FAM19A5 protein [2]) | binding to FAM19A5 protein (co-immunoprecipitation) (FAM19A5 protein [3])
B1 | 73 | 56.2 | –
B2 | 51.4 | 27.2 | –
B3 | – | – | able to bind to the FAM19A5 protein with varying degree
B4 | – | – | able to bind to the FAM19A5 protein with varying degree
B5 | – | – | able to bind to the FAM19A5 protein with varying degree
B6 | – | – | able to bind to the FAM19A5 protein with varying degree
B7 | – | – | able to bind to the FAM19A5 protein with varying degree
B8 | – | – | able to bind to the FAM19A5 protein with varying degree
B9 | – | – | able to bind to the FAM19A5 protein
B10 | – | – | able to bind to the FAM19A5 protein
